The record followed here is PMC4663120.

This test has as its target FhuA ΔC/Δ5L (E. coli) (UniProt P06971). Nature of the test: single-channel electrical recording on planar lipid bilayer.

For the substance “nucleocapsid protein 7 (NCp7) (natural protein)”, the duration of transient current blockades was under 1 ms.
